Values of other authors in paper PMC4843017.

Biological target: Ndc80 complex (Homo sapiens) (UniProt O14777)
Assay: isothermal titration calorimetry

Sequence of Ndc80 complex (Homo sapiens) (O14777 whole entry, chain 1 of 4): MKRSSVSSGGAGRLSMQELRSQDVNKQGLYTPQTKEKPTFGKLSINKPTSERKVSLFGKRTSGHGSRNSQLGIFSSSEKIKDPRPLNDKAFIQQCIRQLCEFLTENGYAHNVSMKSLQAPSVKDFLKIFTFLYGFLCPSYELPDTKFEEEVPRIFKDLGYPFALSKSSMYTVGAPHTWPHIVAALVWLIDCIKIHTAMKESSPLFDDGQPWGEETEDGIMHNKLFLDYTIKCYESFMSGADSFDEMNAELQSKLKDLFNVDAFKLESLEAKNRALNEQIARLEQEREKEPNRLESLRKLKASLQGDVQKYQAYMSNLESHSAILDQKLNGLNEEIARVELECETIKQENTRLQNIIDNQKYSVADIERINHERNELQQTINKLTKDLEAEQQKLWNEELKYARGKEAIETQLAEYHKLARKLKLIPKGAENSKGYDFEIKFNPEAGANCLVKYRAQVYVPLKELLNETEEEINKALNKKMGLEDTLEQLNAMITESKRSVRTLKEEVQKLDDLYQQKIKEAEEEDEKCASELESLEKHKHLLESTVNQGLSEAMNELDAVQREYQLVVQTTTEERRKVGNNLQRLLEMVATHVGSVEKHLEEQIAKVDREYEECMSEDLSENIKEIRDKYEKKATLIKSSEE
Sequence of Ndc80 complex (Homo sapiens) (Q9BZD4 whole entry, chain 2 of 4, further chain): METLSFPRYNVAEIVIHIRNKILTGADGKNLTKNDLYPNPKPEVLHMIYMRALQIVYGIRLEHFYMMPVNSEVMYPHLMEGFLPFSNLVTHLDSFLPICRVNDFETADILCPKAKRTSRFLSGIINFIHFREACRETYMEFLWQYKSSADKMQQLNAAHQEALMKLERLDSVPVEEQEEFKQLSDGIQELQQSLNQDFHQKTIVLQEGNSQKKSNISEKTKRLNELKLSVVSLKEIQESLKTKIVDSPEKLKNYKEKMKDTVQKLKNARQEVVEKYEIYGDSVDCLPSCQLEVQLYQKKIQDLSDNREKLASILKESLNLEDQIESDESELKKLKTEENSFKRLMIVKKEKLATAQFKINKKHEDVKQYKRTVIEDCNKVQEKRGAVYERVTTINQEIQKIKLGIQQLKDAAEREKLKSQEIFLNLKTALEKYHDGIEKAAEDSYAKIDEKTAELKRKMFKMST
Sequence of Ndc80 complex (Homo sapiens) (Q8NBT2 whole entry, chain 3 of 4, further chain): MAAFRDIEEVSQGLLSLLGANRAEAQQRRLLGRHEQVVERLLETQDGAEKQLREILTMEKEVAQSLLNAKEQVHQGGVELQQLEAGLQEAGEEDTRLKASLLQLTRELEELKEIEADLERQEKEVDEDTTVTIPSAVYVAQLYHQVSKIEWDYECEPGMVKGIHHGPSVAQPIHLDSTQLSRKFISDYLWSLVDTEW
Sequence of Ndc80 complex (Homo sapiens) (Q9HBM1 whole entry, chain 4 of 4, further chain): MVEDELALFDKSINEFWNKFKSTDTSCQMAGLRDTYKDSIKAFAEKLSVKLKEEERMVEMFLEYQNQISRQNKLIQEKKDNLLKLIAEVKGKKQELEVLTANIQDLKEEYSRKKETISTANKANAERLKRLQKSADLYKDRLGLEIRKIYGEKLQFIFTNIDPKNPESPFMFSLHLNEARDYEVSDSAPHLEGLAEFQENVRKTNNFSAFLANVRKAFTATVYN

Kd: 10 nM
Substance: Mis12 complex (from UniProt Q9H081)
